Data published in US20090117640A1.
Positions count from the first letter of the chain named. Numbers in names are those of the source.

Key:
Assay in all cases: cell-based or functional assay
[1] = biological target: Human growth hormone (human) (UniProt P01241)
hGH mutant Q40N (human) = hGH mutant Q40N (human) (UniProt P01241)
hGH mutant Q141N (human) = hGH mutant Q141N (human) (UniProt P01241)
Chain of hGH mutant Q141N (human) (P01241 27-217 Q167N): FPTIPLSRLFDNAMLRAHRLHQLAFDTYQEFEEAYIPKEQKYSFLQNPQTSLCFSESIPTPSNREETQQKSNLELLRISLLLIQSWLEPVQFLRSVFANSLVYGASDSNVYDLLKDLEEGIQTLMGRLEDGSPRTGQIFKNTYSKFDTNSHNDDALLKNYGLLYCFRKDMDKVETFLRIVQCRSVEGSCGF

Chain of Human growth hormone (human) (P01241 27-217 limits assumed): as the sequence (P01241 27-217 Q167N) above, with N141Q counted along it
Chain of hGH mutant Q40N (human) (P01241 27-217 Q66N): as the sequence (P01241 27-217 Q167N) above, with Q40N, N141Q counted along it

B1: TGase from S. mobaraense (wild type) (enzyme)
chain: DSDDRVTPPAEPLDRMPDPYRPSYGRAETVVNNYIRKWQQVYSHRDGRKQQMTEEQREWLSYGCVGVTWVNSGQYPTNRLAFASFDEDRFKNELKNGRPRSGETRAEFEGRVAKESFDEEKGFQRAREVASVMNRALENAHDESAYLDNLKKELANGNDALRNEDARSPFYSALRNTPSFKERNGGNHDPSRMKAVIYSKHFWSGQDRSSSADKRKYGDPDAFRPAPGTGLVDMSRDRNIPRSPTSPGEGFVNFDYGWFGAQTEADADKTVWTHGNHYHAPNGSLGAMHVYESKFRNWSEGYSDFDRGAYVITFIPKSWNTAPDKVKQGWP
About 50% hGH reacted at t=, enzyme 0.07 µM (min (printed in h and min)) [1]: 75 | Transamination Gln 40 vs Gln 141 (Gln 40 share), CE, enzyme 0.07 µM (share of mono-transamination products) [1]: 15 | Transamination Gln 40 vs Gln 141 (Gln 141 share), CE, enzyme 0.07 µM (share of mono-transamination products) [1]: 85 | Gln 40 vs Gln 141 (normalized), Gln 141 share (normalized ratio) (hGH mutant Q40N (human)): 79 | HPLC peak area of remaining hGH-Q40N (area (arbitrary units)) (hGH mutant Q40N (human)): 519 | Gln 40 vs Gln 141 (normalized), Gln 40 share (normalized ratio) (hGH mutant Q141N (human)): 21 | HPLC peak area of remaining hGH-Q141N (area (arbitrary units)) (hGH mutant Q141N (human)): 1290

B2: Y75E, Y302R TGase (enzyme)
chain: B1 chain with Y75E, Y302R
About 50% hGH reacted at t=, enzyme 7.20 µM (min (printed in h and min)) [1]: 90 | Transamination Gln 40 vs Gln 141 (Gln 40 share), CE, enzyme 7.20 µM (share of mono-transamination products) [1]: 65 | Transamination Gln 40 vs Gln 141 (Gln 141 share), CE, enzyme 7.20 µM (share of mono-transamination products) [1]: 35

B3: TGase from Streptoverticillium ladakanum (enzyme)
chain: DSDERVTPPAEPLDRMPDPYRPSYGRAETIVNNYIRKWQQVYSHRDGRKQQMTEEQREWLSYGCVGVTWVNSGQYPTNRLAFAFFDEDKYKNELKNGRPRSGETRAEFEGRVAKDSFDEAKGFQRARDVASVMNKALENAHDEGAYLDNLKKELANGNDALRNEDARSPFYSALRNTPSFKDRNGGNHDPSKMKAVIYSKHFWSGQDRSGSSDKRKYGDPEAFRPDRGTGLVDMSRDRNIPRSPTSPGESFVNFDYGWFGAQTEADADKTVWTHGNHYHAPNGSLGAMHVYESKFRNWSDGYSDFDRGAYVVTFVPKSWNTAPDKVKQGWP
Gln 40 vs Gln 141 (normalized), Gln 141 share (normalized ratio) (hGH mutant Q40N (human)): 89 | HPLC peak area of remaining hGH-Q40N (area (arbitrary units)) (hGH mutant Q40N (human)): 375 | Gln 40 vs Gln 141 (normalized), Gln 40 share (normalized ratio) (hGH mutant Q141N (human)): 11 | HPLC peak area of remaining hGH-Q141N (area (arbitrary units)) (hGH mutant Q141N (human)): 1160

B4: Y75E TGase (enzyme)
chain: B1 chain with Y75E
About 50% hGH reacted at t=, enzyme 3.90 µM [1]: < 30 min | Transamination Gln 40 vs Gln 141 (Gln 40 share), CE, enzyme 3.90 µM (share of mono-transamination products) [1]: 45 | Transamination Gln 40 vs Gln 141 (Gln 141 share), CE, enzyme 3.90 µM (share of mono-transamination products) [1]: 55

B5: Y302R TGase (enzyme)
chain: B1 chain with Y302R
About 50% hGH reacted at t=, enzyme 0.39 µM [1]: 30 min | Transamination Gln 40 vs Gln 141 (Gln 40 share), CE, enzyme 0.39 µM (share of mono-transamination products) [1]: 30 | Transamination Gln 40 vs Gln 141 (Gln 141 share), CE, enzyme 0.39 µM (share of mono-transamination products) [1]: 70
